In patent US20060188956A1, “Relaxin3-gpcr135 complexes and their production and use” (priority 2003, published 2006):

How the values were obtained:
GPCR135 [1] = target: T1, GPCR135 (Homo sapiens, UniProt Q9NSD7); assay: Intracellular cAMP accumulation assay in CHO-K1 cells; assay type: cell-based; design: primers complementary to the putative translation start and stop sites of the GPCR135 open reading frame; expressed in transfected cells; host or cells: CHO-K1 (transient, pCIneo vector); isolated cell membranes
T1 sequence (Q9NSD7 1-469): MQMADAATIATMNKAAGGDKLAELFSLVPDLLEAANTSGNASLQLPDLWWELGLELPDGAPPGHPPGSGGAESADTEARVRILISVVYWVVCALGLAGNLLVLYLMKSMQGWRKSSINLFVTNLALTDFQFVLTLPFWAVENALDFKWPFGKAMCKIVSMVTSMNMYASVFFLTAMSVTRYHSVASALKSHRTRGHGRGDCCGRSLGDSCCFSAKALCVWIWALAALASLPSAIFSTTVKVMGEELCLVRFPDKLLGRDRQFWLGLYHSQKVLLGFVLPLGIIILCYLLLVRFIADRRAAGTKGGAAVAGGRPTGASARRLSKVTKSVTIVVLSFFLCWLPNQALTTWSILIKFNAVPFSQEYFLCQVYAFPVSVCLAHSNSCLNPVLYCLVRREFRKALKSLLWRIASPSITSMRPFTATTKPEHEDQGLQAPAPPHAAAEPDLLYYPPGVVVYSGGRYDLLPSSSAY
Experimental: CHO-K1 cells stably expressing human GPCR135 (GPCR135) and un-transfected CHO-K1 cells (Control) were used for cAMP accumulation assays. Cells were treated with different stimulants as indicated. cAMP accumulated in the cells was extracted by HCl and the concentration of cAMP was measured by a ELISA kit (NEN) using ^125I-labeled cAMP and Flash plates.
CHO-K1 cells stably expressing human GPCR135 were established by transfection of GPCR135 expressing plasmid into CHO-K1 (ATCC# CCL-61) cells and culturing the transfected cells under selection of G418 (400 mg/L). The receptor expressing cells were seeded in 96-well plates at a cell density of 30,000 cells/well. Twenty-four hours later, cell culture medium was replaced with DMEM-F12 plus 2 mM IBMX (sigma). A different test compound for cAMP stimulation was added to each well. The reactions were incubated at room temperature for 20 min. Twenty micro-liters of 0.5 N HCl was added to each well to stop the reaction and extract the accumulated cAMP. The cAMP concentration was measured using a cAMP ELISA kit (NEN).

mouse GPCR135 = target: T2, mouse GPCR135 (Mus musculus, UniProt Q8BGE9); assay: Radioligand binding assay in transfected COS-7 cells; settings: COS-7 cells transfected with mouse GPCR135; competitor 1 μM unlabeled relaxin3
T2 construct: Mouse GPCR135 coding region was PCR amplified from mouse genomic DNA; expressed in transfected cells; host or cells: COS-7 (ATCC CRL-1651), transient
T2 sequence (Q8BGE9 1-472): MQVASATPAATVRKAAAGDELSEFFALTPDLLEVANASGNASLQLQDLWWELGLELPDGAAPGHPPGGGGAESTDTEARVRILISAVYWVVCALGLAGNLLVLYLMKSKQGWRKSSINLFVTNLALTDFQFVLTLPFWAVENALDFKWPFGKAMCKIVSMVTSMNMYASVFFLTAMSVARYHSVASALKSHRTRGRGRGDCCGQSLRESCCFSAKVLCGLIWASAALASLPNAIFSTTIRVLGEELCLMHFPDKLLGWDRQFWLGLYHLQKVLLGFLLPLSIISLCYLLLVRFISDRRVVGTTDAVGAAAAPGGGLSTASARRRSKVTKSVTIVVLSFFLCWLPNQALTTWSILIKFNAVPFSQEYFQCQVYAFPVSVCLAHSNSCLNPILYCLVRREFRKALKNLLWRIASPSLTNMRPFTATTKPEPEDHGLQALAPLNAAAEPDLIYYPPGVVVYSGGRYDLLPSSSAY
Experimental: (§1) COS7 cells, either untransfected (NC) or transfected with pcDNA3.1 (the vector control), human GPCR135 (hGPCR135), mouse GPCR135 (mGPCR135), rat GPCR135 long form (rGPCR135L), and rat GPCR135 short form (rGPCR135s) respectively, were used for binding assays using ^125I-labeled human relaxin3 either in the present (“Competition”) or absence (“Total Binding”) of 1 µM of unlabeled human relaxin3 as the competitor.
(§2) COS-7 cells in 6-well tissue culture plates were transfected by GPCR135 expressing plasmid using LipofectAmine. Two days after transfection, cells were washed with binding buffer: DMEM plus 50 mM Hepes, pH 7.2 and 1% BSA. ^125I-label human relaxin3 was added to each well in 1 ml of binding buffer at presence or absence 1 μM of unlabeled relaxin as competitor. The binding assays were carried out at room temperature for one hour and the unbound ligand was washed away by ice-cold PBS. The bound ^125I-relaxin3 was counted in a gamma counter.

rat GPCR135 = assay: as above; settings: COS-7 cells transfected with rat GPCR135 (long and short form); competitor 1 μM unlabeled relaxin3
rat GPCR135, sequence (as listed by the source): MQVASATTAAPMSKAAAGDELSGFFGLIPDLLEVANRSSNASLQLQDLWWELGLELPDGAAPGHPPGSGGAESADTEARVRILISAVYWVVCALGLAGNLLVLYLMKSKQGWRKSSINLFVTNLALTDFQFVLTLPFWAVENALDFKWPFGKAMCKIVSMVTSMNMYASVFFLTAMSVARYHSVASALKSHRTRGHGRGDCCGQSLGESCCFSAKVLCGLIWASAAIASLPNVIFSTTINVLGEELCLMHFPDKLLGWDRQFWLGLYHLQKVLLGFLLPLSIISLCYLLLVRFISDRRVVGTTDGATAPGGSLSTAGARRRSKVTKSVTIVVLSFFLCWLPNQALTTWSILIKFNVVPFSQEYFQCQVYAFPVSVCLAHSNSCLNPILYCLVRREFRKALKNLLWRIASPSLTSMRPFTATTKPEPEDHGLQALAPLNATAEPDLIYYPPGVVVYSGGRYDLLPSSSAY
Experimental: as §1, §2

GPCR135 [2] = target: T1, GPCR135; assay: as above; settings: COS-7 cells transfected with human GPCR135; competitor 1 μM unlabeled relaxin3
Experimental: as §1, §2

GPCR135 [3] = target: T1, GPCR135; settings: transient expression in Cos-1 cells; cited from earlier work
GPCR135 [4] = target: T1, GPCR135; assay: GTPγS binding assay with GPCR135 expressing cell membranes; assay type: biochemical; design: primers complementary to the putative translation start and stop sites of the GPCR135 open reading frame; expressed in transfected cells; host or cells: CHO-K1 (transient, pCIneo vector); isolated cell membranes; settings: GPCR135 expressing cell membrane
Experimental: Frozen rat brains (5 g) were homogenized at −30° C. in 40 ml ethanol/HCl (ethanol to 0.8M HCl ratio at 3:1). The homogenate was extracted at 4° C. for 2 hr and then centrifuged at 4° C. at 20,000 g for 30 min. The supernatant was loaded onto a 2 ml SP-Sephadex C-25 column (Amersham), washed with 1 M acetic acid and eluted with 2 M pyridine and 1 M acetic acid. The eluted fraction was loaded onto a 6 ml C-18 BondElut column, washed with 0.1% TFA and eluted with 60% acetonitrile and 0.1% TFA. The eluted peptides were lyophilized, reconstituted in water, and tested for GPCR135 ligand activity using GTPγS binding assay as described in Example 5.
The expression vector was transfected into COS-7 cells using LipofectAmine (Invitrogen). Three days after the transfection, the supernatants of the transfected cells were collected, the pH was adjusted to 3.0 and loaded onto a Sephadex C-25 cation exchange column. The column was washed with 1 M acetic acid and eluted with 2 M pyridine and 1 M acetic acid. The eluted proteins were loaded on a C-18 BondElut column, washed with 0.1% TFA, and eluted with 60% acetonitrile and 0.1% TFA. […]
GPCR135 expression vector was transfected into CHO-K1 cells using Lipofectamine (Invitrogen). […] Microscint-40 (Packard) was added to each well and the plate was counted on a top counter (TopCount NTX, Packard).

LGR7 = target: T3, LGR7 (Homo sapiens, UniProt Q9HBX9); settings: cited from earlier work
T3 sequence (Q9HBX9 1-757): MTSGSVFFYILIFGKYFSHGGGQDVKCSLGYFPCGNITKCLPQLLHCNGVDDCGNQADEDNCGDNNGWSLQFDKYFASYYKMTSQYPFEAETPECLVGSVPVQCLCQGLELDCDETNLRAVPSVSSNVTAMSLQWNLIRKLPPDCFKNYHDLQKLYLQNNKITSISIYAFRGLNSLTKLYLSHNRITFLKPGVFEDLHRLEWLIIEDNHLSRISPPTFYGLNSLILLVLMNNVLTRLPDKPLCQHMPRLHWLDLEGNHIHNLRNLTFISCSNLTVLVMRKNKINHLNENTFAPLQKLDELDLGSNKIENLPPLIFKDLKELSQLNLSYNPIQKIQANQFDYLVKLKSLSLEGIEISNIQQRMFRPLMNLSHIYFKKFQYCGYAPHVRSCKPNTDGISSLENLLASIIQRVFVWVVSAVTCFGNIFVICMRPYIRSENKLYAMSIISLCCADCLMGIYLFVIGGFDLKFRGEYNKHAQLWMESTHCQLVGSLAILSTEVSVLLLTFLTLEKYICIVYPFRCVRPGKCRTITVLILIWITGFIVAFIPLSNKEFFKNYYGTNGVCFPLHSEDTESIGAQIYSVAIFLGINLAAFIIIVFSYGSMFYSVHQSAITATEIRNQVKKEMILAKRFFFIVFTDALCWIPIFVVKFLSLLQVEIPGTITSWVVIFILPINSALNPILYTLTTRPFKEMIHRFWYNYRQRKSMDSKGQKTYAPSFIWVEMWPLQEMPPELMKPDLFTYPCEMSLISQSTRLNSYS

GPCR135 [5] = target: T1, GPCR135; assay: Ca2+ mobilization assay (FLIPR) in HEK293 cells co-expressing GPCR135 and Gqi5; assay type: cell-based; design: primers complementary to the putative translation start and stop sites of the GPCR135 open reading frame; expressed in transfected cells; host or cells: HEK293 (ATCC CRL-1573), transient co-transfection with Gqi5
Experimental: Using LipofectAmine, human embryonic kidney (HEK) 293 cells were co-transfected with a plasmid expressing GPCR135 receptor and a plasmid expressing Gqi5, a mutant G-protein that translates the activation of GPCR135 into an increased intracellular Ca^2+, or increased Ca^2+ mobilization (Conklin et al., 1993, Nature 363: 274-276). Two days after transfection, cells were detached with PBS plus 10 mM EDTA, pH 8.0. The detached cells were washed with DMEM-F12 medium (without phenol red, Invitrogen) and seeded in black poly-D lysine coated 96-well plates at a cell density of 50,000 cell/well. Calcium dye, Fluo-3 (AM) (TEFLABS, Austin, Tex.) was loaded into the cells and ligand stimulated calcium mobilization was monitored using FLIPR (Molecular Device).
HEK293 cells, untransfected (293 Control) or transfected by Gqi5 (293/Gqi5) alone or human GPCR135 (GPCR135) alone, or co-transfected by human GPCR135 and Gqi5 (GPCR135/Gqi5), were used for Ca^2+ mobilization assays under stimulation of relaxin3 as the ligand. Ligand-stimulated intracellular mobilization was monitored using FLIPR.

C=C[C@@]1(C)CC(=O)[C@]2(O)[C@@]3(C)[C@@H](O)CCC(C)(C)[C@@H]3[C@H](O)[C@H](OC(C)=O)[C@@]2(C)O1 [forskalin, reference compound]
intracellular concentration of cAMP (GPCR135 [1]; in the absence of GPCR135): increases
intracellular concentration of cAMP (GPCR135 [1]; in the presence of GPCR135): increases

^125I-relaxin3: human relaxin3 labeled with iodine-125, used as radioligand
specific binding to GPCR135 (mouse GPCR135): specifically binds
specific binding to GPCR135 (rat GPCR135): specifically binds
specific binding to GPCR135 (GPCR135 [2]): specifically binds

angiotensin II (DRVYIHPF; Angiotensin-2; UniProt P01019 25-32, looked up)
binding sites on GPCR135 (GPCR135 [3]): did not produce any binding sites

relaxin3: secreted protein consisting of relaxin3 polypeptide chains A and B linked by disulfide bridges; recombinant human, natural ligand of GPCR135
forskalin-stimulated cAMP accumulation (GPCR135 [1]; cells expressing GPCR135): inhibits
intracellular concentration of cAMP (GPCR135 [1]; in the presence of GPCR135): decreases
stimulation of GTPγS binding (GPCR135 [4]): potently stimulated
activation of LGR7 (LGR7): activates
Ca2+ mobilization (GPCR135 [5]): stimulates
